Target: HLA-A*02:01 (Homo sapiens, UniProt P04439, D140Y/D185E/D98H/E176V/E277Q/G131W/G231S/I119V/I121R/I166T/I218V/L300P/L318F/N151K/N90K/P208A/P217A/Q86G/Q94H/R138H/R169H/T345S)
Test: MHC binding assay (UV-ligand exchange, ELISA, peptide exchange yield)
Conditions: binding of HLA-class I restricted peptides to HLA-A*02:01
Procedure, shortened: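 Exchange yield was quantified as stabilized β2m-containing complex: monomers diluted 100-fold bound to streptavidin-coated wells, probed with HRP-conjugated anti-β2m, read at 450 nm after TMB. Complexes had been generated by UV cleavage of a photolabile ligand and replacement with the candidate peptide.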

Substance | Peptide exchange (MHC class I binding score, peptide exchange yield)
348 (ILLDVKTRL; listed as Homo sapiens) [compound 348] | ″++++″ (≥75% = ++++)
349 (SLTEYLQNV; listed as Homo sapiens) [compound 349] | ″++++″ (≥75% = ++++)
350 (ALLDVTHSELTV; listed as Homo sapiens) [compound 350] | ″+++″ (≥50% = +++)
351 (SLIPNLRNV; listed as Homo sapiens) [compound 351] | ″+++″ (≥50% = +++)
352 (SLLELLHIYV; listed as Homo sapiens) [compound 352] | ″+++″ (≥50% = +++)
353 (YLFEMDSSL; listed as Homo sapiens) [compound 353] | ″++″ (≥20% = ++)
354 (LILEGVDTV; listed as Homo sapiens) [compound 354] | ″++″ (≥20% = ++)
355 (SIQQSIERLLV; listed as Homo sapiens) [compound 355] | ″++″ (≥20% = ++)
356 (KLLGKLPEL; listed as Homo sapiens) [compound 356] | ″+++″ (≥50% = +++)
357 (SMHDLVLQV; listed as Homo sapiens) [compound 357] | ″+++″ (≥50% = +++)
358 (ALDEYTSEL; listed as Homo sapiens) [compound 358] | ″++++″ (≥75% = ++++)
359 (YLLPESVDL; listed as Homo sapiens) [compound 359] | ″+++″ (≥50% = +++)
361 (ALYELEGTTV; listed as Homo sapiens) [compound 361] | ″+++″ (≥50% = +++)
362 (TLYGLSVLL; listed as Homo sapiens) [compound 362] | ″+++″ (≥50% = +++)
363 (KVLDVSDLESV; listed as Homo sapiens) [compound 363] | ″++″ (≥20% = ++)
364 (LLQNEQFEL; listed as Homo sapiens) [compound 364] | ″+++″ (≥50% = +++)
365 (YVIDQGETDVYV; listed as Homo sapiens) [compound 365] | ″+++″ (≥50% = +++)
366 (RLLDMGETDLML; listed as Homo sapiens) [compound 366] | ″+++″ (≥50% = +++)
367 (SLQNHNHQL; listed as Homo sapiens) [compound 367] | ″+++″ (≥50% = +++)
369 (GLFPEHLIDV; listed as Homo sapiens) [compound 369] | ″+++″ (≥50% = +++)
370 (SLLQDLVSV; listed as Homo sapiens) [compound 370] | ″+++″ (≥50% = +++)
371 (FLQAHLHTA; listed as Homo sapiens) [compound 371] | ″++++″ (≥75% = ++++)

Substance | Peptide exchange (MHC class I binding score, peptide exchange yield)
372 (TMLLNIPLV; listed as Homo sapiens) [compound 372] | ″++″ (≥20% = ++)
373 (SLLEDKGLAEV; listed as Homo sapiens) [compound 373] | ″++″ (≥20% = ++)
374 (FLLQQHLISA; listed as Homo sapiens) [compound 374] | ″++″ (≥20% = ++)
375 (SLTETIEGV; listed as Homo sapiens) [compound 375] | ″++″ (≥20% = ++)
376 (AMFESSQNVLL; listed as Homo sapiens) [compound 376] | ″++″ (≥20% = ++)
377 (FLLDSSASV; listed as Homo sapiens) [compound 377] | ″++″ (≥20% = ++)
378 (ALGYFVPYV; listed as Homo sapiens) [compound 378] | ″+++″ (≥50% = +++)
379 (IMEGTLTRV; listed as Homo sapiens) [compound 379] | ″++″ (≥20% = ++)
380 (TLIEDEIATI; listed as Homo sapiens) [compound 380] | ″++″ (≥20% = ++)
381 (FIDEAYVEV; listed as Homo sapiens) [compound 381] | ″++″ (≥20% = ++)
382 (ALQNYIKEA; listed as Homo sapiens) [compound 382] | ″++″ (≥20% = ++)
383 (ALLELENSVTL; listed as Homo sapiens) [compound 383] | ″+++″ (≥50% = +++)
385 (SLLEQGLVEA; listed as Homo sapiens) [compound 385] | ″++″ (≥20% = ++)
386 (ILFRYPLTI; listed as Homo sapiens) [compound 386] | ″+++″ (≥50% = +++)
387 (ALFQATAEV; listed as Homo sapiens) [compound 387] | ″++++″ (≥75% = ++++)
388 (SLTIDGIRYV; listed as Homo sapiens) [compound 388] | ″+++″ (≥50% = +++)
389 (LLADVTHLL; listed as Homo sapiens) [compound 389] | ″++″ (≥20% = ++)
390 (ALFMKQIYL; listed as Homo sapiens) [compound 390] | ″+++″ (≥50% = +++)
391 (YVYPQRLNFV; listed as Homo sapiens) [compound 391] | ″+++″ (≥50% = +++)
392 (ALLHPQGFEV; listed as Homo sapiens) [compound 392] | ″++″ (≥20% = ++)
393 (GLLDTQTSQVLTA; listed as Homo sapiens) [compound 393] | ″++″ (≥20% = ++)
394 (LLAVIGGLVYL; listed as Homo sapiens) [compound 394] | ″+++″ (≥50% = +++)

Substance | Peptide exchange (MHC class I binding score, peptide exchange yield)
395 (ALALGGIAVV; listed as Homo sapiens) [compound 395] | ″++++″ (≥75% = ++++)
396 (ALLPDLPAL; listed as Homo sapiens) [compound 396] | ″+++″ (≥50% = +++)
397 (YLFGERLLEC; listed as Homo sapiens) [compound 397] | ″+++″ (≥50% = +++)
398 (KLLEEDGTIITL; listed as Homo sapiens) [compound 398] | ″++″ (≥20% = ++)
399 (YLFEPLYHV; listed as Homo sapiens) [compound 399] | ″+++″ (≥50% = +++)
400 (SLLTEQDLWTV; listed as Homo sapiens) [compound 400] | ″++″ (≥20% = ++)
401 (ILLDDTGLAYI; listed as Homo sapiens) [compound 401] | ″+++″ (≥50% = +++)
402 (VLFSGALLGL; listed as Homo sapiens) [compound 402] | ″++″ (≥20% = ++)
403 (KLYDRILRV; listed as Homo sapiens) [compound 403] | ″++″ (≥20% = ++)
405 (ALYDVFLEV; listed as Homo sapiens) [compound 405] | ″++″ (≥20% = ++)
407 (YLMDLINFL; listed as Homo sapiens) [compound 407] | ″+++″ (≥50% = +++)
408 (VLDDSIYLV; listed as Homo sapiens) [compound 408] | ″++″ (≥20% = ++)
409 (LLDAMNYHL; listed as Homo sapiens) [compound 409] | ″++″ (≥20% = ++)
412 (YLDDLNEGVYI; listed as Homo sapiens) [compound 412] | ″++″ (≥20% = ++)
426 (RLADKSVLV; listed as Homo sapiens) [compound 426] | ″+++″ (≥50% = +++)
427 (ALLPLSPYL; listed as Homo sapiens) [compound 427] | ″+++″ (≥50% = +++)
428 (KLGHTDILVGV; listed as Homo sapiens) [compound 428] | ″++″ (≥20% = ++)
429 (GLVNDLARV; listed as Homo sapiens) [compound 429] | ″++″ (≥20% = ++)
430 (HLYSSIEHLTT; listed as Homo sapiens) [compound 430] | ″+++″ (≥50% = +++)
431 (SLVNVVPKL; listed as Homo sapiens) [compound 431] | ″++″ (≥20% = ++)
432 (TLIEESAKV; listed as Homo sapiens) [compound 432] | ″++″ (≥20% = ++)
433 (AMLNEPWAV; listed as Homo sapiens) [compound 433] | ″+++″ (≥50% = +++)
